Experiment [1] concerns APAO. Kind of experiment: APAO activity of crude cell-free extract, TLC. It is filed as biochemical, Exophiala spinifera. Conditions: crude cell-free extract of induced Exophiala spinifera, TLC. The protocol:
For analysis of APAO activity, an alternative method was used. Equal volumes of sample and ^14C-AP1 (1 mg/ml, pH 8, 50 mM sodium phosphate) were incubated at room temperature for one to six days. Analytical thin-layer chromatography was then carried out on C60 HPK silica gel plates (Whatman #4807-700; 10×10 cm; 0.2 mm thick). After application of from 0.1 to 2 μl of aqueous sample, the plates were air-dried and developed in CHCl3:MeOH:CH3COOH:H20 (55:36:8:1). Plates were then air dried, and exposed to Phosphorlmager screen (Molecular Dynamics) or autoradiographic film. A Storm™ Phosphorlmager (Molecular Dynamics) was used to scan the image produced on the screen.
A cell-free extract that contains the deaminase activity was obtained by subjecting substrate-induced Exophiala spinifera cells to disruption using a Bead Beater™ in 50 mM Na-phosphate, pH 8.0, and recovering the cell-free supernatant by centrifugation and 0.45 micron filtration. Catabolic activity is assayed by incubating extracts with AP1 (hydrolyzed fumonisin BI backbone) or “^4C-labelled AP1 with the extract and evaluating by TLC on C18 or C60 silica. […] Other amine-containing substrates were tested for modification by the crude extract. […] Preparative amounts of the product, named 2-OP, have also been purified and analyzed by C13 nmr.

The subject of experiment [2] is APAO enzyme. It is filed as biochemical, Exophiala spinifera. The protocol: The following assay was used to determine the substrate specificity of the APAO enzyme. […] The APAO enzyme was recombinant enzyme produced,as GST fusion in E. coli, purified over a glutathione affinity column and cleaved with thrombin to remove the GST. All components were mixed at room temperature. The initial rate was determined in a spectrophotometer at 572 nm over one minute by absorbance units/second (BLANK). Ten microliters of APAO at 70 ug/ml was added and mixed. The initial rate was again determined at 572 nm over one minute in absorbance units/second (SAMPLE). The rates were converted to absorbance units/minute. The BLANK value was subtracted from the SAMPLE value. The absorbance units were converted to μM H2O2 wherein 1 μM H2O2 equals 0.138 absorbance units at pH 8.0.

Experiment [3] in a line: Mutated APAO lysates from E coli, Amplex Red assay, substrate AP1. The format is biochemical. The protocol:
The following assay was used to determine the substrate specificity of the APAO enzyme. Reaction mix: 436 μl of 200 mM Na-phosphate, pH8.0; 50 μl substrate (10 mM); 2 μl Amplex Red (1 mg in 200 μl DMSO); and 2 μof Peroxidase (5000 U/ml). The APAO enzyme was recombinant enzyme produced,as GST fusion in E. coli, purified over a glutathione affinity column and cleaved with thrombin to remove the GST. All components were mixed at room temperature. The initial rate was determined in a spectrophotometer at 572 nm over one minute by absorbance units/second (BLANK). Ten microliters of APAO at 70 ug/ml was added and mixed. The initial rate was again determined at 572 nm over one minute in absorbance units/second (SAMPLE). The rates were converted to absorbance units/minute. The BLANK value was subtracted from the SAMPLE value. The absorbance units were converted to μM H2O2 wherein 1 μM H2O2 equals 0.138 absorbance units at pH 8.0.
The APAO molecules mutated at specific cysteines were tested in a bacterial expression system using the previously described Amplex Red assay. The results can be seen in the table below entitled “Cys(−) APAO lysates from E. coli.” The mutated APAO molecules can then be tested in maize, linked to a signal peptide, as previously described. Either one of the cysteines or two or three together could be mutated to serines without any measured loss in APAO enzyme activity of the E coli-expressed enzyme. […] The mutated versions of APAO operably linked to a signal sequence, which retain function when expressed as recombinant fusion proteins in E. coli may also provide additional stability or foldability when expressed in plants or other secretion expression systems.

The nature of experiment [4]: Mutated APAO lysates from E coli, Amplex Red assay, substrate FB1. The format is biochemical.
The mark [5] stands for this setting: 1 mM substrate, pH 8.0, room temperature.
Where [6] appears, read: 0.5 mg/mL substrate, pH 8.0, room temperature.
Where [7] appears, read: Cys(−) APAO lysates from E coli.
Where [8] appears, read: Triple Cys(−) APAO lysates from E coli.

Like-named read-outs stand apart in the source and are kept apart here.

In the case of `CCCCCCCCCCCCC/C=C/[C@@H](O)[C@@H](N)CO` [sphingosine], the “modification by the crude extract” value in experiment [1] is listed as “apparently not modified”.

`NCCc1ccc(O)c(O)c1` [dopamine] displayed an RATE in experiment [2] (pH 8) of 0.0040 μM H2O2/min.

With `CCCC[C@@H](C)[C@@H](OC(=O)C[C@@H](CC(=O)O)C(=O)O)[C@H](C[C@@H](C)C[C@H](O)CCCCCC[C@H](O)[C@H](C)N)OC(=O)C[C@@H](CC(=O)O)C(=O)O` [Fumonisin B3], the RATE in experiment [2] (setting [5]) amounted to 0.1449 μM H2O2/min.

`NC[C@H](O)c1ccc(O)c(O)c1` [norepinephrine] had an RATE in experiment [2] (setting [5]) of 0.0087 μM H2O2/min.

`CNC[C@H](O)c1ccc(O)c(O)c1` [epinephrine] registered an RATE in experiment [2] (pH 8) of 0.0071 μM H2O2/min.

`CCCC[C@@H](C)[C@@H](OC(=O)C[C@@H](CC(=O)O)C(=O)O)[C@H](C[C@@H](C)CCCCCCCC[C@H](O)[C@H](C)N)OC(=O)C[C@@H](CC(=O)O)C(=O)O` [Fumonisin B4]: the RATE in experiment [2] (setting [6]) is on record as 0.1728 μM H2O2/min.

Molecule `NCCCNCCCCNCCCN` [spermine] registered an RATE in experiment [2] (pH 8) of 0.0002 μM H2O2/min.

As for `CCCCCCCCCCCCCCC[C@@H](O)[C@@H](N)CO` [sphinganine], the “modification by the crude extract” value in experiment [1] is recorded as “apparently not modified”.

Regarding `CCCC[C@@H](C)[C@@H](OC(=O)C[C@@H](CC(=O)O)C(=O)O)[C@H](C[C@@H](C)CCCCCC[C@@H](O)C[C@H](O)[C@H](C)N)OC(=O)C[C@@H](CC(=O)O)C(=O)O` [Fumonisin B2], in experiment [2] (setting [6]), the RATE was found to be 0.3058 μM H2O2/min.

In the case of `CCCCCCCCCCCCCC[C@@H](O)[C@@H](O)[C@@H](N)CO` [phytosphingosine], in experiment [1], the “modification by the crude extract” value is listed as “apparently not modified”.

B1: C359S, C461S: APAO mutated at both cysteines 359 and 461 (SEQ ID NO: 51), plasmid PHP16738 (protein)
chain: KDNVADVVVVGAGLSGLETARKVQAAGLSCLVLEAMDRVGGKTLSVQSGPGRTTINDLGAAWINDSNQSEVSRLFERFHLEGELQRTTGNSIHQAQDGTTTTAPYGDSLLSEEVASALAELLPVWSQLIEEHSLQDLKASPQAKRLDSVSFAHYCEKELNLPAVLGVANQITRALLGVEAHEISMLFLTDYIKSATGLSNIFSDKKDGGQYMRCKTGMQSISHAMSKELVPGSVHLNTPVAEIEQSASGCTVRSASGAVFRSKKVVVSLPTTLYPTLTFSPPLPAEKQALAENSILGYYSKIVFVWDKPWWREQGFSGVLQSSSDPISFARDTSIDVDRQWSITCFMVGDPGRKWSQQSKQVRQKSVWDQLRAAYENAGAQVPEPANVLEIEWSKQQYFQGAPSAVYGLNDLITLGSALRTPFKSVHFVGTETSLVWKGYMEGAIRSGQRGAAEVVASLVPAA
modifications: Cys (-) APAO; removal of cys 359 and 461 (Exophiala spinifera)
As for B1, the Conclusion entry in experiment [3] (setting [7]) is on record as “Fully/More Active”; in experiment [3] (Cys(−) APAO lysates from E coli, listed as C359S+C461S), “more APAO activity in crude lysates than wild type enzyme”; in experiment [4] (setting [7]), “Slightly active”. Moreover, the “M H2O2/min” value in experiment [3] (setting [7]) is on record as 3.90 μM H2O2/min; in experiment [4] (setting [7]), 0.16 μM H2O2/min.

B2: C461S: APAO mutated at cysteine 461 (SEQ ID NO: 49), plasmid PHP16737 (protein)
chain: KDNVADVVVVGAGLSGLETARKVQAAGLSCLVLEAMDRVGGKTLSVQSGPGRTTINDLGAAWINDSNQSEVSRLFERFHLEGELQRTTGNSIHQAQDGTTTTAPYGDSLLSEEVASALAELLPVWSQLIEEHSLQDLKASPQAKRLDSVSFAHYCEKELNLPAVLGVANQITRALLGVEAHEISMLFLTDYIKSATGLSNIFSDKKDGGQYMRCKTGMQSICHAMSKELVPGSVHLNTPVAEIEQSASGCTVRSASGAVFRSKKVVVSLPTTLYPTLTFSPPLPAEKQALAENSILGYYSKIVFVWDKPWWREQGFSGVLQSSSDPISFARDTSIDVDRQWSITCFMVGDPGRKWSQQSKQVRQKSVWDQLRAAYENAGAQVPEPANVLEIEWSKQQYFQGAPSAVYGLNDLITLGSALRTPFKSVHFVGTETSLVWKGYMEGAIRSGQRGAAEVVASLVPAA
modifications: Cys (-) APAO; removal of cysteine 461 (Exophiala spinifera)
For the molecule B2, in experiment [3] (setting [7]), the Conclusion result was “Fully Active” and the “M H2O2/min” value is reported as 2.25 μM H2O2/min. Moreover, in experiment [4] (setting [7]), the Conclusion result is “Slightly active” and the “M H2O2/min” value was found to be 0.14 μM H2O2/min.

B3: C167S, C359S, C461S: triply Cys-mutated version of APAO (SEQ ID NO: 53), plasmid PHP17089 (protein)
chain: KDNVADVVVVGAGLSGLETARKVQAAGLSSLVLEAMDRVGGKTLSVQSGPGRTTINDLGAAWINDSNQSEVSRLFERFHLEGELQRTTGNSIHQAQDGTTTTAPYGDSLLSEEVASALAELLPVWSQLIEEHSLQDLKASPQAKRLDSVSFAHYCEKELNLPAVLGVANQITRALLGVEAHEISMLFLTDYIKSATGLSNIFSDKKDGGQYMRCKTGMQSISHAMSKELVPGSVHLNTPVAEIEQSASGCTVRSASGAVFRSKKVVVSLPTTLYPTLTFSPPLPAEKQALAENSILGYYSKIVFVWDKPWWREQGFSGVLQSSSDPISFARDTSIDVDRQWSITCFMVGDPGRKWSQQSKQVRQKSVWDQLRAAYENAGAQVPEPANVLEIEWSKQQYFQGAPSAVYGLNDLITLGSALRTPFKSVHFVGTETSLVWKGYMEGAIRSGQRGAAEVVASLVPAA
modifications: Cys (-) APAO; removal of cys 169, 359, and 461 (Exophiala spinifera)
Turning to B3, the Conclusion entry in experiment [3] (setting [7]) is given as “Slightly active”; in experiment [3] (setting [8]), “Slightly Active”; in experiment [4] (setting [7]) it was “Slightly active”; in experiment [4] (setting [8]), “Slightly active”. Further, the “M H2O2/min” value in experiment [3] (setting [7]) is 0.27 μM H2O2/min; in experiment [3] (setting [8]) it was 0.27 μM H2O2/min; in experiment [4] (setting [7]), 0.25 μM H2O2/min; in experiment [4] (setting [8]), 0.26 μM H2O2/min.
